Assay results from patent US20140056907A1 (Regeneron, published 2014).
Where a chain is given by its changes, count along the chain named.

T1: human ASIC1 (human, UniProt P78348 1-528)
T1 sequence: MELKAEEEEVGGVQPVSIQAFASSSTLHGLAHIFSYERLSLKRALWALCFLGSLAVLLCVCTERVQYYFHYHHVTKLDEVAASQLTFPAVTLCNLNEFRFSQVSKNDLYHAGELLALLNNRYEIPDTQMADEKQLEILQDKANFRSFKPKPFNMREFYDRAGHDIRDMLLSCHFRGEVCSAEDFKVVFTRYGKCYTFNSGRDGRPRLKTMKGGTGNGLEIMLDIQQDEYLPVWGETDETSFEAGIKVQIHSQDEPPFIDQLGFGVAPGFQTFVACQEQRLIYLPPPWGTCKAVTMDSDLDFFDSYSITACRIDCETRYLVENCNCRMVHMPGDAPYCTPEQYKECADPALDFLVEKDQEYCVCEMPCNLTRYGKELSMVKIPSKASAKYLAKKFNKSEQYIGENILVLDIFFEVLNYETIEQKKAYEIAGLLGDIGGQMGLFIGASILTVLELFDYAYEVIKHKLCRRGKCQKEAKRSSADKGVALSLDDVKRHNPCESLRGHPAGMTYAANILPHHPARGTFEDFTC

T2: human ASIC3 (human, UniProt Q9UHC3 1-531)
T2 construct: whole, on cells; Expressed on 3T3 cells (3T3/hASIC3) or HEK293 cells (HEK/hASIC3-QCells); also called hASIC3
T2 sequence (looked up): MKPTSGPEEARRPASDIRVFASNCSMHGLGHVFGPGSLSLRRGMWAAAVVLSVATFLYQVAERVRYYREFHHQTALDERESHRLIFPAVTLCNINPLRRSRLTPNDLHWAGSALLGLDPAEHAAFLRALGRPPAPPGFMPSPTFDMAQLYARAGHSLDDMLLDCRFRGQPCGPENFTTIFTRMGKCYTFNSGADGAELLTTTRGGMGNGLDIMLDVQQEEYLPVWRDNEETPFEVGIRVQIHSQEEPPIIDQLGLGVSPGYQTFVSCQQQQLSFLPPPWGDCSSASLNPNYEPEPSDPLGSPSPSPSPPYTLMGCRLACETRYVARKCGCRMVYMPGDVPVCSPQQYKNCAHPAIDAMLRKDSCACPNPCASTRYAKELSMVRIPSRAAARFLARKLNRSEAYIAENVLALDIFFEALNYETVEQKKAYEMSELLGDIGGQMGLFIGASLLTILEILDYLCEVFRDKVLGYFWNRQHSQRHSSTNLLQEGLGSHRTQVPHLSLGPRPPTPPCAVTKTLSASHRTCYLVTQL

T3: mouse ASIC1a (mouse, UniProt Q6NXK8 1-526)
T3 construct: whole, on cells; Expressed on stably transfected 3T3 cells (3T3/mASIC1a); also called mASIC1a
T3 sequence (looked up): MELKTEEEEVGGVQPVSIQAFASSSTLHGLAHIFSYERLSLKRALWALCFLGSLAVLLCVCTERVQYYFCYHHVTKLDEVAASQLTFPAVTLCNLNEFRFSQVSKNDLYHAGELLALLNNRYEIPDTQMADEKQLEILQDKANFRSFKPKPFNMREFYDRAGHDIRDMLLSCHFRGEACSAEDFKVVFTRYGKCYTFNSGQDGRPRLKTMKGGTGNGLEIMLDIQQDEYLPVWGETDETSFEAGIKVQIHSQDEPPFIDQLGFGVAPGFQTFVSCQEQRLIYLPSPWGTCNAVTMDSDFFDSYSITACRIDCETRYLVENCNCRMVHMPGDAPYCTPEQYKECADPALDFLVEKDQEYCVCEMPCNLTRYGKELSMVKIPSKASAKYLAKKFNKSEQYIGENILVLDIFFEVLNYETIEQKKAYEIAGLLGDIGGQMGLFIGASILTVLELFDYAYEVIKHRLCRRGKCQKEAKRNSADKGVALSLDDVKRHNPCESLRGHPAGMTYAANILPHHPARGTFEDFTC

T4: human ASIC1/ASIC3 channels (co-expressed human ASIC1a and human ASIC3) (human, UniProt Q9UHC3 1-531)
T4 construct: whole, on cells; 3T3 cells co-expressing both subunits; also called 3T3/hASIC1/3; 3T3-hASIC1/ASIC3
T4 sequence 1: T1 sequence
T4 sequence 2: T2 sequence (looked up)

B1: H4H6366P (antibody, human IgG4, V domains shown)
VH: EVQLVESGGDLIQPGGSLRLSCIASGFTFRGYAMSWVRQAPGEGLDWVSGISSGGGNTYYADSVKGRFTISRDNSKNTLYLQMNSLRVEDTAVYYCAKDRGGVRDFYYGLDVWGQGTTVTVSS
VL: DIQMTQSPSTLSASVGDRVTITCRASQSIYSWLAWYQQKPGKAPKLLIYKASSLESGVPSRFSGSGSGTDFTLTISSLQPDDFTTYYCQQYLSYSRTFGQGTKVEIK
B2: H1M6718N (antibody, mouse IgG1, V domains shown)
VH: EVQLLESGGGLVQPGGSLRLSCAASGFTFSSFAMSWVRQAPGKGLEWVSGISGSGGGTHYADSVKGRFTISRDNSKNMVYLQMNSLRAEDTAAYYCAKEAYKWQPWGQGTLVTVSS
VL: B1 VL with T20I, S28R, Y30S, K45N, S53I, D70E, T84A, L92N, R96Y, V104L
B3: H1M7101N (antibody, mouse IgG1, V domains shown)
VH: B2 VH with E6A, P14T, G57S, H59Y, M78T, V79L, T110I, L111R
VL: B1 VL with Y30S, K45N, A51T, S53N, D70E, T84A, L92N, R96Y, V104L
B4: H4H6364P (antibody, human IgG4, V domains shown)
VH: EVQLVESGGGLVQSGGSLRLSCAASGFTFSRYWMSWVRQAPGKGLEWVANIKQDGSEKDYVDSVKGRFTISRDNTKSSLFLQMNSLRAEDTAVYYCAKERWNWNFFDYWGQGTLVTVSS
VL: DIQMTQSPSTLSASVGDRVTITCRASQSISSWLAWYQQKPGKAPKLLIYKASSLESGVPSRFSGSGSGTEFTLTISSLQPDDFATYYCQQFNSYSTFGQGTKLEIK
B5: H4H6363P (antibody, V domains shown)
VH: EVQLLESGGGLVQPGGSLRLSCAASGFIFTNYAMTWLRQAPGKGLEWVSALSGSGGTTYYADSVKGRFTTSRDNSKNTLYLQMNSLRAEDTAVYYCAKDPHYYGSGNDYFYYYGLDVWGRGTTVTVSS
VL: not shown
B6: H1M6716N (antibody, mouse IgG1, V domains shown)
VH: QVQLVQSGAEVKKPGASVKVSCKASGYTFTIYDINWVRQATGQGLEWMGWMNPRSGSTGYSQKFQGRVTMTRNTSINTAFMELSSLRSEDTAVYYCVRGQLVLGYWGQGTLVTVSS
VL: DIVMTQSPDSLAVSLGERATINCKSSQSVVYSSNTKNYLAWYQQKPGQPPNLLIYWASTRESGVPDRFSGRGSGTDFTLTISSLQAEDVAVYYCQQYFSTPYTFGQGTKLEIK

What follows are binders tested against T1, human ASIC1 (assay: cell-based or functional assay).
For B1, the “apparent IC50, human ASIC1 current, Q-Patch” value (from here on “apparent IC50”) was ≤ 10 nM. In the case of B2, the “apparent IC50” value is reported as < 1 nM and the “calculated IC50, inhibition of human ASIC1 current, Port-a-Patch” value is reported as 0.86 nM. For B3, the “apparent IC50” value was < 1 nM.

These binders were tested against T2, human ASIC3 (assay: FACS, 3T3/hASIC3 cells, 10 nM antibody).
Description: (§1) For these experiments, four cell lines were constructed: (a) a mouse fibroblast 3T3 cell line stably transfected to overexpress full length human ASIC3 (3T3/hASIC3; amino acids 1-531 of NCBI accession number NP_{—}004760.1), (b) a 3T3 cell line stably transfected to co-express full length human ASIC1a and human ASIC3 (3T3/hASIC1/3; amino acids 1-528 of NCBI accession number NP_{—}001086.2 and amino acids 1-531 of NCBI accession number NP_{—}004760.1), (c) […] a stably transfected 3T3 cell line expressing the full-length mouse ASIC3 channel (3T3/mASIC3; amino acids 1-530 of NCBI accession number NP_{—}892045.2), and (d) a 3T3 cell line stably transfected to co-express full length mouse ASIC1a and mouse ASIC3 (3T3/mASIC1/3; amino acids 1-526 of NCBI accession number NP_{—}033727 and amino acids 1-530 of NCBI accession number NP_{—}892045.2). Antibody binding was determined using flow cytometry (FACS).
(§2) To perform the FACS binding experiments, adherent cells were collected with cold Millipore Accutase 3-5 minutes, spun and resuspended in ice-cold FACS buffer (PBS, 2% HI-FBS and 0.09% Na-azide). Anti-ASIC1 antibody at final concentrations of 10 nM was added for 20-30 minutes on ice. Cells were washed with 900 μL ice-cold FACS buffer, spun, and resuspended in 100 μL ice-cold FACS buffer. A secondary antibody which recognizes human Fc (Jackson Immuno Research, #109-136-098) and is conjugated to allophycocyanin, was then added to the cell mixture at a final concentration of 2.5 ug/mL. After incubating for 20 minutes on ice, the cells were washed and resuspended in FACS buffer, then sorted and analyzed on a flow cytometer (FACSCanto II, BD Biosciences, San Jose, Calif.) to determine relative binding by the candidate antibodies to the tested cell lines. Histograms of cells stained with anti-ASIC1 antibodies were compared with those of cells stained with secondary antibody alone. Percentage of ASIC1 signal over secondary antibody alone was calculated using FlowJo software (Tree Star, Ashland, Oreg.).
B4: binds. B5: binds. B6: binds.

These binders were tested against T3, mouse ASIC1a (assay: FACS, 3T3/mASIC1a cells).
Description: To further characterize anti-ASIC1 antibodies, their ability to bind either (a) a mouse fibroblast 3T3 cell line stably transfected to overexpress full length human ASIC1 (3T3/hASIC1; amino acids 1-528 of NCBI accession number NP_{—}001086.2 [SEQ ID NO:401]), (b) a 3T3 cell line stably transfected to over express full length mouse ASIC1a (3T3/mASIC1a; amino acids 1-526 of NCBI accession number NP_{—}033727), or (c) a ND7 cell line (ECACC, #92090903) that is a fusion cell line of mouse neuroblastoma and rat dorsal root ganglia that endogenously expresses rat ASIC1, was determined using flow cytometry (FACS). ND7 cells were differentiated by replacing the culture media with low-serum media (0.5% FBS) containing 1 mM dibutyryl-cAMP (Cat. No. sc-201567A, Santa Cruz Biotechnology, Inc., Santa Cruz, Calif.). FACS binding was tested for some antibodies on both undifferentiated ND7 cells and differentiated ND7 cells.
(§3) To perform the FACS binding experiments, adherent cells were collected using 1 mM EDTA in PBS, then washed, and re-suspended in cold PBS containing 5% FBS. For each binding experiment, each anti-ASIC1 antibody (at final concentrations of 10 nM of purified antibodies or 3.3 nM for antibody supernatants for binding to 3T3/hASIC1 cells and 5 nM for binding to 3T3/mASIC1a or ND7 cells) was added to 250,000 cells in 500 μL of PBS with 5% FBS. After incubation for 20 minutes at room temperature, a secondary antibody which recognizes human Fc (Cat. No. 109-136-098, Jackson ImmunoResearch Laboratories, Inc., West Grove, Pa.) or mouse Fc (Cat. No. 550826, BD Biosciences, San Jose, Calif.) and is conjugated to allophycocyanin, was then added to the cell mixture at a final concentration of 13.3 nM. After incubating for 20 minutes on ice, the cells were washed and resuspended in PBS containing 5% FBS, then sorted and analyzed on a flow cytometer (FACSCalibur, BD Biosciences, San Jose, Calif.) to determine relative binding by the candidate antibodies to the tested cell lines. Histograms of cells stained with anti-ASIC1 antibodies were compared with those of cells stained with secondary antibody alone. Percentage of ASIC1 signal over secondary antibody alone was calculated using FlowJo software (Tree Star, Ashland, Oreg.).
B1: binds. B2: binds. B3: binds.

Molecular target: T1, human ASIC1
Experiment: cell-based or functional assay
Remark: another data set of the same source
B4 was tested, and the “Current inhibition (%) at 100 nM antibody, Q-Patch, pH 6.0” value (from here on “Current inhibition (%)”) was 0%. In the case of B5, the “Current inhibition (%)” value is reported as 0%. For B1, the “Current inhibition (%)” value was 72%. For B2, the “Current inhibition (%)” value was 100%. With B3 the “Current inhibition (%)” value was 97%.

These binders were tested against T4, human ASIC1/ASIC3 channels … (assay: FACS, 3T3/hASIC1/3 cells, 10 nM antibody).
Description: as §1, §2
B4: binds. B5: binds. B6: binds.

These binders were tested against T1, human ASIC1 (assay: FACS titration, 3T3/hASIC1 cells).
Method: as §3, with “([…]” for “(at final concentrations of 10 nM of purified antibodies or 3.3 nM for antibody supernatants for binding to 3T3/hASIC1 cells and 5 nM for binding to 3T3/mASIC1a”
Work on B4 yielded an EC50 of 1.5 nM. With B5 the EC50 was 0.836 nM. In the case of B6, the EC50 is reported as 0.023 nM. B1 was tested, and the EC50 was 1 nM. B2 was tested, and the EC50 was 0.55 nM. With B3 the EC50 was 0.72 nM.

Molecular target: T1, human ASIC1
Experiment: cell-based or functional assay
Remark: another data set of the same source
In the case of B6, the “FLIPR Dose Curve, pH 5.0 % Block” value is reported as 25%, the “FLIPR Dose Curve, pH 5.5 % Block” value is reported as 37% and the “FLIPR Dose Curve, pH 5.5 IC50” value is reported as 1.1 nM. With B2 the “FLIPR Dose Curve, pH 5.0 % Block” value was 48%, the “FLIPR Dose Curve, pH 5.5 % Block” value was 78% and the “FLIPR Dose Curve, pH 5.5 IC50” value was 0.6 nM.
